T1: B3GNT2 (Homo sapiens, UniProt Q9NY97)
T1 construct: The respective ORFs of candidate genes [CD274 (NM_014143), MCL1 (NM_021960), JUNB (NM_002229), and B3GNT2 (NM_006577)] were synthesized; expressed in transfected cells; host or cells: A375 melanoma cells (lentiviral ORF overexpression)
T1 sequence (Q9NY97 1-397): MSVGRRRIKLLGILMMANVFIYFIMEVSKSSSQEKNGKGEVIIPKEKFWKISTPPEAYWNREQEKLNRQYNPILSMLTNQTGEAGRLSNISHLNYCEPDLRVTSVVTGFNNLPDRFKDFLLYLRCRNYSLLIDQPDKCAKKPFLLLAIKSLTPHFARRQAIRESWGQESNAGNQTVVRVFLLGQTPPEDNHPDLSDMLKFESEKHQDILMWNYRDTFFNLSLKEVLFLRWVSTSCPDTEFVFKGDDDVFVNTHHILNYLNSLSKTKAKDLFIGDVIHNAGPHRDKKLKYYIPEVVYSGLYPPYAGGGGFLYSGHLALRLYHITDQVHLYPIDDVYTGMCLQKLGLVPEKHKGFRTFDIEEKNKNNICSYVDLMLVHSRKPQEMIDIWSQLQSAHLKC

B1: HSPD1 (protein)
chain: AKDVKFGADARALMLQGVDLLADAVAVTMGPKGRTVIIEQSWGSPKVTKDGVTVAKSIDLKDKYKNIGAKLVQDVANNTNEEAGDGTTTATVLARSIAKEGFEKISKGANPVEIRRGVMLAVDAVIAELKKQSKPVTTPEEIAQVATISANGDKEIGNIISDAMKKVGRKGVITVKDGKTLNDELEIIEGMKFDRGYISPYFINTSKGQKCEFQDAYVLLSEKKISSIQSIVPALEIANAHRKPLVIIAEDVDGEALSTLVLNRLKVGLQVVAVKAPGFGDNRKNQLKDMAIATGGAVFGEEGLTLNLEDVQPHDLGKVGEVIVTKDDAMLLKGKGDKAQIEKRIQEIIEQLDVTTSEYEKEKLNERLAKLSDGVAVLKVGGTSDVEVNEKKDRVTDALNATRAAVEEGIVLGGGCALLRCIPALDSLTPANEDQKIGIEIIKRTLKIPAMTIAKNAGVEGSLIVEKIMQSSSEVGYDAMAGDFVNMVEKGIIDPTKVVRTALLDAAGVASLLTTAEVVVTEIPKEEKDPGMGAMGGMGGGMGGGMF
B2: MSN (protein)
chain: PKTISVRVTTMDAELEFAIQPNTTGKQLFDQVVKTIGLREVWFFGLQYQDTKGFSTWLKLNKKVTAQDVRKESPLLFKFRAKFYPEDVSEELIQDITQRLFFLQVKEGILNDDIYCPPETAVLLASYAVQSKYGDFNKEVHKSGYLAGDKLLPQRVLEQHKLNKDQWEERIQVWHEEHRGMLREDAVLEYLKIAQDLEMYGVNYFSIKNKKGSELWLGVDALGLNIYEQNDRLTPKIGFPWSEIRNISFNDKKFVIKPIDKKAPDFVFYAPRLRINKRILALCMGNHELYMRRRKPDTIEVQQMKAQAREEKHQKQMERAMLENEKKKREMAEKEKEKIEREKEELMERLKQIEEQTKKAQQELEEQTRRALELEQERKRAQSEAEKLAKERQEAEEAKEALLQASRDQKKTQEQLALEMAELTARISQLEMARQKKESEAVEWQQKAQMVQEDLEKTRAELKTAMSTPHVAEPAENEQDEQDENGAEASADLRADAMAKDRSEEERTTEAEKNERVQKHLKALTSELANARDESKKTANDMIHAENMRLGRDKYKTLRQIRQGNTKQRIDEFESM
B3: CCT7 (protein)
chain: MDKLIVDGRGKATISNDGATILKLLDVVHPAAKTLVDIAKSQDAEVGDGTTSVTLLAAEFLKQVKPYVEEGLHPQIIIRAFRTATQLAVNKIKEIAVTVKKADKVEQRKLLEKCAMTALSSKLISQQKAFFAKMVVDAVMMLDDLLQLKMIGIKKVQGGALEDSQLVAGVAFKKTFSYAGFEMQPKKYHNPKIALLNVELELKAEKDNAEIRVHTVEDYQAIVDAEWNILYDKLEKIHHSGAKVVLSKLPIGDVATQYFADRDMFCAGRVPEEDLKRTMMACGGSIQTSVNALSADVLGRCQVFEETQIGGERYNFFTGCPKAKTCTFILRGGAEQFMEETERSLHDAIMIVRRAIKNDSVVAGGGAIEMELSKYLRDYSRTIPGKQQLLIGAYAKALEIIPRQLCDNAGFDATNILNKLRARHAQGGTWYGVDINNEDIADNFEAFVWEPAMVRINALTAASEAACLIVSVDETIKNPRSTVDAPTAAGRGRGRGRPH
B4: ARHGEF2 (protein, UniProt Q92974 1-986, looked up)
Rho guanine nucleotide …: MSRIESLTRARIDRSRELASKTREKEKMKEAKDARYTNGHLFTTISVSGMTMCYACNKSITAKEALICPTCNVTIHNRCKDTLANCTKVKQKQQKAALLKNNTALQSVSLRSKTTIRERPSSAIYPSDSFRQSLLGSRRGRSSLSLAKSVSTTNIAGHFNDESPLGLRRILSQSTDSLNMRNRTLSVESLIDEAEVIYSELMSDFEMDEKDFAADSWSLAVDSSFLQQHKKEVMKQQDVIYELIQTELHHVRTLKIMTRLFRTGMLEELHLEPGVVQGLFPCVDELSDIHTRFLSQLLERRRQALCPGSTRNFVIHRLGDLLISQFSGPSAEQMCKTYSEFCSRHSKALKLYKELYARDKRFQQFIRKVTRPAVLKRHGVQECILLVTQRITKYPLLISRILQHSHGIEEERQDLTTALGLVKELLSNVDEGIYQLEKGARLQEIYNRMDPRAQTPVPGKGPFGREELLRRKLIHDGCLLWKTATGRFKDVLVLLMTDVLVFLQEKDQKYIFPTLDKPSVVSLQNLIVRDIANQEKGMFLISAAPPEMYEVHTASRDDRSTWIRVIQQSVRTCPSREDFPLIETEDEAYLRRIKMELQQKDRALVELLREKVGLFAEMTHFQAEEDGGSGMALPTLPRGLFRSESLESPRGERLLQDAIREVEGLKDLLVGPGVELLLTPREPALPLEPDSGGNTSPGVTANGEARTFNGSIELCRADSDSSQRDRNGNQLRSPQEEALQRLVNLYGLLHGLQAAVAQQDTLMEARFPEGPERREKLCRANSRDGEAGRAGAAPVAPEKQATELALLQRQHALLQEELRRCRRLGEERATEAGSLEARLRESEQARALLEREAEEARRQLAALGQTEPLPAEAPWARRPVDPRRRSLPAGDALYLSFNPPQPSRGTDRLDLPVTTRSVHRNFEDRERQELGSPEERLQDSSDPDTGSEEEGSSRLSPPHSPRDFTRMQDIPEETESRDGEAVASES
B5: MAGT1 (protein)
chain: QRKKEMVLSEKVSQLMEWTNKRPVIRMNGDKFRRLVKAPPRNYSVIVMFTALQLHRQCVVCKQADEEFQILANSWRYSSAFTNRIFFAMVDFDEGSDVFQMLNMNSAPTFINFPAKGKPKRGDTYELQVRGFSAEQIARWIADRTDVNIRVIRPPNYAGPLMLGLLLAVIGGLVYLRRSNMEFLFNKTGWAFAALCFVLAMTSGQMWNHIRGPPYAHKNPHTGHVNYIHGSSQAQFVAETHIVLLFNGGVTLGMVLLCEAATSDMDIGKRKIMCVAGIGLVVLFFSWMLSIFRSKYHGYPYSFLMS
B6: SPRR1A (protein)
chain: MNSQQQKQPCTPPPQPQQQQVKQPCQPPPQEPCIPKTKEPCHPKVPEPCHPKVPEPCQPKVPEPCQPKVPEPCPSTVTPAPAQQKTKQK
B7: ILF3 (protein)
chain: MRPMRIFVNDDRHVMAKHSSVYPTQEELEAVQNMVSHTERALKAVSDWIDEQEKGSSEQAESDNMDVPPEDDSKEGAGEQKTEHMTRTLRGVMRVGLVAKGLLLKGDLDLELVLLCKEKPTTALLDKVADNLAIQLAAVTEDKYEILQSVDDAAIVIKNTKEPPLSLTIHLTSPVVREEMEKVLAGETLSVNDPPDVLDRQKCLAALASLRHAKWFQARANGLKSCVIVIRVLRDLCTRVPTWGPLRGWPLELLCEKSIGTANRPMGAGEALRRVLECLASGIVMPDGSGIYDPCEKEATDAIGHLDRQQREDITQSAQHALRLAAFGQLHKVLGMDPLPSKMPKKPKNENPVDYTVQIPPSTTYAITPMKRPMEEDGEEKSPSKKKKKIQKKEEKAEPPQAMNALMRLNQLKPGLQYKLVSQTGPVHAPIFTMSVEVDGNSFEASGPSKKTAKLHVAVKVLQDMGLPTGAEGRDSSKGEDSAEETEAKPAVVAPAPVVEAVSTPSAAFPSDATAEQGPILTKHGKNPVMELNEKRRGLKYELISETGGSHDKRFVMEVEVDGQKFQGAGSNKKVAKAYAALAALEKLFPDTPLALDANKKKRAPVPVRGGPKFAAKPHNPGFGMGGPMHNEVPPPPNLRGRGRGGSIRGRGRGRGFGGANHGGYMNAGAGYGSYGYGGNSATAGYSQFYSNGGHSGNASGGGGGGGGGSSGYGSYYQGDNYNSPVPPKHAGKKQPHGGQQKPSYGSGYQSHQGQQQSYNQSPYSNYGPPQGKQKGYNHGQGSYSYSNSYNSPGGGGGSDYNYESKFNYSGSGGRSGGNSYGSGGASYNPGSHGGYGGGSGGGSSYQGKQGGYSQSNYNSPGSGQNYSGPPSSYQSSQGGYGRNADHSMNYQYR
B8: ZC3HAV1 (protein, UniProt Q7Z2W4 2-902, looked up)
Zinc finger CCCH-type …: ADPEVCCFITKILCAHGGRMALDALLQEIALSEPQLCEVLQVAGPDRFVVLETGGEAGITRSVVATTRARVCRRKYCQRPCDNLHLCKLNLLGRCNYSQSERNLCKYSHEVLSEENFKVLKNHELSGLNKEELAVLLLQSDPFFMPEICKSYKGEGRQQICNQQPPCSRLHICDHFTRGNCRFPNCLRSHNLMDRKVLAIMREHGLNPDVVQNIQDICNSKHMQKNPPGPRAPSSHRRNMAYRARSKSRDRFFQGSQEFLASASASAERSCTPSPDQISHRASLEDAPVDDLTRKFTYLGSQDRARPPSGSSKATDLGGTSQAGTSQRFLENGSQEDLLHGNPGSTYLASNSTSAPNWKSLTSWTNDQGARRKTVFSPTLPAARSSLGSLQTPEAVTTRKGTGLLSSDYRIINGKSGTQDIQPGPLFNNNADGVATDITSTRSLNYKSTSSGHREISSPRIQDAGPASRDVQATGRIADDADPRVALVNDSLSDVTSTTSSRVDDHDSEEICLDHLCKGCPLNGSCSKVHFHLPYRWQMLIGKTWTDFEHMETIEKGYCNPGIHLCSVGSYTINFRVMSCDSFPIRRLSTPSSVTKPANSVFTTKWIWYWKNESGTWIQYGEEKDKRKNSNVDSSYLESLYQSCPRGVVPFQAGSRNYELSFQGMIQTNIASKTQKDVIRRPTFVPQWYVQQMKRGPDHQPAKTSSVSLTATFRPQEDFCFLSSKKYKLSEIHHLHPEYVRVSEHFKASMKNFKIEKIKKIENSELLDKFTWKKSQMKEEGKLLFYATSRAYVESICSNNFDSFLHETHENKYGKGIYFAKDAIYSHKNCPYDAKNVVMFVAQVLVGKFTEGNITYTSPPPQFDSCVDTRSNPSVFVIFQKDQVYPQYVIEYTEDKACVIS

Molecular target: T1, B3GNT2
Experiment: Co-IP of FLAG-tagged B3GNT2 followed by mass spectrometry
Assay type: cell-based
Design: C-term IgG / C-term flag: unit not given here
Settings: mass spectrometry count, unit not given; for C-term flag / N-term FLAG: Co-IP with FLAG antibody; for C-term flag / C-term IgG: C-terminally FLAG-tagged B3GNT2; for N-term FLAG / N-term IgG: N-terminally FLAG-tagged B3GNT2; for C-term IgG / N-term IgG: Co-IP with IgG control antibody
Procedure, shortened: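 FLAG-tagged B3GNT2 immunoprecipitated from cell lysate (HEPES, 1% Triton X-100, 150 mM NaCl) with anti-FLAG versus […], overnight at 4° C, then captured on Protein A/G magnetic beads for 4 h. Two biological replicates per condition. Peptides fractionated and analyzed by nano-LC on an Orbitrap Elite in data-dependent mode.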

Row | Molecule | C-term flag | N-term FLAG | C-term IgG | N-term IgG
1 | B1 | 6 | 10 | 2 | 0
2 | B2 | 4 | 3 | 0 | 0
3 | B3 | 2 | 0 | 0 | 0
4 | B4 | 2 | 0 | 0 | 0
5 | B5 | 2 | 0 | 0 | 0
6 | B6 | 3 | 4 | 0 | 0
7 | B7 | 5 | 2 | 0 | 0
8 | B8 | 4 | 3 | 0 | 0
